Test results as given in PMC3036719, “The Multifunctional LigB Adhesin Binds Homeostatic Proteins with Potential Roles in Cutaneous Infection by Pathogenic Leptospira interrogans” (PLoS ONE, 2011).

Biological target: T1, LigB9-11 (Leptospira interrogans serovar …)
T1 construct: pET-20b(+) adds an initiating methionine and a C-terminal LEH6 tail; not shown: His6 (LEH6 tail), C-terminal, kept
Assay: ELISA; host protein (1 µg per well) immobilised in microtiter wells, blocked with 20 mg/mL BSA; recombinant LigB in 20 mg/mL BSA in PBS pH 7.2, 1 h at 37°C; bound LigB detected by its polyhistidine tag; apparent Kd from the LigB concentration at half-maximal binding
Settings: both partners purified

B1: fibrinogen fragment D (complex)
chain 1: VSEDLRSRIEVLKRKVIEKVQHIQLLQKNVRAQLVDMKRLEVDIDIKIRSCRGSCSRALAREVDLKDYEDQQKQLEQVIAKDLLPSR
chain 2: DNENVVNEYSSELEKHQLYIDETVNSNIPTNLRVLRSILENLRSKIQKLESDVSAQMEYCRTPCTVSCNIPVVSGKECEEIIRKGGETSEMYLIQPDSSVKPYRVYCDMNTENGGWTVIQNRQDGSVDFGRKWDPYKQGFGNVATNTDGKNYCGLPGEYWLGNDKISQLTRMGPTELLIEMEDWKGDKVKAHYGGFTVQNEANKYQISVNKYRGTAGNALMDGASQLMGENRTMTIHNGMFFSTYDRDNDGWLTSDPRKQCSKEDGGGWWYNRCHAANPNGRYYWGGQYTWDMAKHGTDDGVVWMNWKGSWYSMRKMSMKIRPFFPQQ
chain 3: KMLEEIMKYEASILTHDSSIRYLQEIYNSNNQKIVNLKEKVAQLEAQCQEPCKDTVQIHDITGKDCQDIANKGAKQSGLYFIKPLKANQQFLVYCEIDGSGNGWTVFQKRLDGSVDFKKNWIQYKEGFGHLSPTGTTEFWLGNEKIHLISTQSAIPYALRVELEDWNGRTSTADYAMFKVGPEADKYRLTYAYFAGGDAGDAFDGFDFGDDPSDKFFTSHNGMQFSTWDNDNDKFEGNCAEQDGSGWWMNKCHAGHLNGVYYQGGTYSKASTPNGYDNGIIWATWKTRWYSMKKTTMKIIPFNRLTIGEGQQHHLGGAK
  Kd: 26 nM
